The target of this assay is human CCR8 (human) (UniProt P51685). Put plainly: cell-based or functional assay.
Sequence of human CCR8 (human) (P51685 whole entry): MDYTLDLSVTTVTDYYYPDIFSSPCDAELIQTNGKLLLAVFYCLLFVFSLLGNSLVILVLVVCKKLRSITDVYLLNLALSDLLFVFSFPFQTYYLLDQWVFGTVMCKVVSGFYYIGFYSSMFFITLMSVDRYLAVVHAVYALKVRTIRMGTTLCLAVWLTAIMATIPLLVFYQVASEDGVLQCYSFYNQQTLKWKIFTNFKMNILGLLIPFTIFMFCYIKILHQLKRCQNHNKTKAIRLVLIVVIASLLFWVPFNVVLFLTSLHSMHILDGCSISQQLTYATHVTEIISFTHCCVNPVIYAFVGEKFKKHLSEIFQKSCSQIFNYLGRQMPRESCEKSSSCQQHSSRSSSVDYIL

B1: control antibody (BD, Cat. #433H) (antibody, from another filing, V domains shown)
VH: EVQLVETGGGLVQPKGSLRLSCAASGFPFNTFAMNWVRQAPGKGLEWLARIRSKSNNYATYYADSVKDRFTISRDDSRRMLYLLMNNVKFEDTAIYYCVRGKENNYGYAMDYWGQGTSVTVSS
VL: DIVMTQAAPSVPVTPGESVSISCRSSQSLLHSNGNTYLYWFLQRPGQSPQLLIYRMSNLASGVPDRFSGSGSGTAFTLRISRVEAEDVGVYYCMQHLEYPFTFGIGTKLELKR
B1 displayed an IC50 of inhibition of CCL1-mediated activation of CCR8 (Ca2+ influx, FLIPR, CHO/hCCR8.Gna15 cells) of 8.4 nM.

These data come from US20240360229A1.
